Source: article PMC6408259

Molecular target: T1, DJ-1 (human (endogenous in M17D neuroblastoma cells)), Q99497
T1 chain: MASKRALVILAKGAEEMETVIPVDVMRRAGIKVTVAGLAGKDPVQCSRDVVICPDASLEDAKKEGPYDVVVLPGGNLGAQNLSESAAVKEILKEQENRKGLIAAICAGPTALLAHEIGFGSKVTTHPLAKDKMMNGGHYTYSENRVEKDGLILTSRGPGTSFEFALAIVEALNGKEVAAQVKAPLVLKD
Assay: cross-linking
Conditions: remark: other sources report otherwise

- stoichiometry N: 2
B1: DJ-1, Q99497 1-189 (natural protein)
chain: T1 chain
